Experimental findings from PMC7110144 (2020) are described below.

The labels stand for the following.
B1: CAL1-V5 (in U2OS cells) [Drosophila melanogaster] / CENP-A-GFP-LacI (in U2OS cells) [Drosophila melanogaster] (parent complex)
chain 1: MANAVVDEETLEAMVYERSKAWSSKMADFASLEDGMEIDVAEFDNLFHGEDEDPDLDDVAKEAVEDNVPDEAKLEMGHINATSVTELTLILCANEDNEAKAEIEEILNQTVPVVEEHKRKWREAGLDRILDTFDEKQIEHHVGRWMRRHNSVYLEASPPKYLPPHHNSISDESDESMHSIDTARYIQQSRRRNAHMTNKNMTTIKMYRKHSHKRDELRAKYAYGDEQEHRHHMQAVLLRRRERERQLAYLASTPMQCVYSSGHHMRRKNLRKRRINSWMFDSASSSEEDTSFGGCDCHSCRRHYALSRSVYQSCPYGRGQREYHHRQMASRTMHTMRRQHTFDMEMDLRPRLPENECSCCNSDRLCSNVIHIANSSTEEWVVENRSNHLTQETQEKTRKQKHQPMDARKVSHQPVCSKGHEQKPLSSKATSVSKLVLSKEKYMQMFDSESSDEDNALAKKGLLCCSDKKKGMTFPTPNAAGKITHPTSSAKKAIRKEARPNGLAQIQEEGPTATNSPIESTYLPVAHMKSVSIDGSSGTSATFESPAKKAPKRGIRETSPLNGNELQQLISTIPIADEKASSLMEKVDNCIGRESFDDRNKDFMHMENSSTKTAVEKSTKQKRVSGKKSEIPKSIITNNEILEKNSTETLSEKQVAAKAKKQSVRKTGATGKPSTSRLKKSEKTKTTSSVTSTSKLEQVREEESDVSSEVLAKPKPQCSTTASILKQGGDGASNSEDDLQIALAMSKATYKEEQQKRKKTKREPSNKQPQSPAEKSMTVFNNQSVACNSTALANDTACYRVLPKRRGVKRAAAVSTTEEKTATNSSSSPTSSLEEMGSPTGGDPDCTVVTSTTGCEPPASERQEIPATIKITKRGILLHSPSAPEGASFTLTEQGLGKIIGERWARKYLKYHIGSRSFDSRHSVYYQPTPQLAAALSAPQDAQNIGNISGSSASDDDIFEQINRYGTVYSILENNSGDK
chain 2: MPRHSRAKRAPRPSANNSKSPNDDDTAFRSPEPEDGTDYGLEFTTSQLTLQDNNRRSSTLRRDAGRRQPAARDSSTSGEEEDQENRYPTTRSPQTRRMTVQQESKTRAAGPVAAQNQTRRRKAANPMSRAKRMDREIRRLQHHPGTLIPKLPFSRLVREFIVKYSDDEPLRVTEGALLAMQESCEMYLTQRLADSYMLTKHRNRVTLEVRDMALMAYICDRGRQF
B2: CAL1-HA (in S2 cells) [Drosophila melanogaster] / GFP-LacI-CENP-C (in S2 cells) [Drosophila melanogaster] (parent complex)
chain 1: B1 chain 1
chain 2: MSKPQNNDTLELDDILSQPVKDKERFAAFMMRKLAENKPAQNDNLFGNFKLDFDLDFEVPLIKKSQAKPKSKLPEVQPLGELVSKNSAATEKVNEPPVDQAPNENVPPRRSPTLSPNNRRSMRRSGNVPGSDKLRRHAIRRRSRSCGRQLLPEFEETVNLTRSISSPVNFLPEISSTPCTEKQKEEVAKNTTRVETDKPAEKPMELSQEPEPENPLQTKVTSPARNPILAAEIEQICKERQSSFHKNVLQLDYSGRAPYSRPPTPSSPSVAGLRRTYTMEKGPAPGQLLLSPSHRYDTPSKMPVVKAKRFNQELMVPDTPERQSHDPAWQSEPQPEFVVPETQPQDLGELVQTLSRSAISPIVVINTSNSNRSVRRDAVAMKSVPTSPVTALSSPPIAPSPRRSAAASPQKSIAQLPRVEENMDAIMTDDESDEHPSTVPLNLAPSGGNTTRQRRLRSSNRARATIESQESSMRLLNLHKSVNAKKSKPRKTAIPLNKAPSAPINGEQFARELTRMSNYEILDLRKRNSLNEIYPLNGHRNHRSEKLILEEEIQRELLRRNLMDEAEGLPKQQSSDDSNEDYIPVPPKTQSLRTKSNDRSQGRGRPRSTRRDLPMTTELVNYLGLSQTLETRRKSSKDGKRCLYTKGSSDHEDNDSLSPVKLPRLSKSIQIVPPPPVSLRYSQSLQNLPCSGKFDFDNVVMAAPPDFHDSVNSDAIEIAPPPPEYVVNTRGRSTSGRKSNKNDLVLPPPGYEGGQEEEHDERPSQPRCTAKELQQSTQNGRRAMENELVPPPIEYVEEENRNNEQSRRSTKNGNLVDRNTHNAVEYCEPPEPPEYDDSDHGQASILRRSGKKLQHSKQSVQKSNKEQIIAPSYENNEDYDSDEEPIYNEEYGKEESQNKNVTRRKSDKDEMASHTLECIEGPDPNWNSSCNKQNRNHQNASKSKENDKLANRSSKSQKLSNPRQNAVGTEKSVALSNRGEECTEKSSDVMESLRVNTPTPPIDQNSDDVPSRNPSPSRTLLSDDVPSTSRAALEFLQRSQNMSKSRPPDESSADVVFKKPLAPAPRAKSKKGKSEVDKLKLAKMPVEAEELNTTGIRRSKRGQVPLQMSWCHTMDPSKFNFMSGFIEPRSKNSKTKKGNLSKAKKASATKPKPTVEKNLPDNRGPLCSSTPRISEKLPGAIPHSESLGLSTLTWEETEVQAEAEKVPKKRGRPKKAVGGVQTDTEAEPEPEPEPMISSVAPLTSDQEEPDVPDEQAPYTEAALGPVVFSTPLRDEQEEASTKLMQWLRGVGDAPPSASMSDENASVSSANELIFCQVDGIDYAFYNTKEKAMLGYMRFKPYQKRSMKQAKVHPLKLLVQFGEFNVETLAVGEEKEVHSVLRVGDMIEIDRGTRYSIQNAIDKVSVLMCIRS
B3: His-CAL1(1-160) [Drosophila melanogaster] / CENP-A(101-225)-H4 [Drosophila melanogaster] (parent complex)
chain 1: MANAVVDEETLEAMVYERSKAWSSKMADFASLEDGMEIDVAEFDNLFHGEDEDPDLDDVAKEAVEDNVPDEAKLEMGHINATSVTELTLILCANEDNEAKAEIEEILNQTVPVVEEHKRKWREAGLDRILDTFDEKQIEHHVGRWMRRHNSVYLEASPPK
chain 2: QQESKTRAAGPVAAQNQTRRRKAANPMSRAKRMDREIRRLQHHPGTLIPKLPFSRLVREFIVKYSDDEPLRVTEGALLAMQESCEMYLTQRLADSYMLTKHRNRVTLEVRDMALMAYICDRGRQF
chain 3: not shown

The variants in one test derive from B1. Nature of the test: LacO/LacI tethering assay in U2OS cells (fluorescence intensity of CAL1-V5 at the tethering site); parent: 1.1e+03; read off a plot.
Consider chain 1 W22R, chain 1 F29R, for which the response was approximately 20 a.u.
On the same count and under the same terms, the result for chain 1 W22A, chain 1 F29A reads approximately 110 a.u.

In a further test the parent is B2. Description: LacO/LacI tethering assay in U2OS cells (fluorescence intensity of CAL1-V5 at the tethering site); parent: 2.1e+03; read off a plot.
Turning to chain 2 L1357E, chain 2 M1407E, the response was approximately 490 a.u.
Still for that read-out and setting: as for chain 2 F1324R, the figure is approximately 300 a.u.

Variants of B2 are the subject of a further test. Nature of the test: LacO/LacI tethering assay in Drosophila S2 cells (fluorescence intensity of CAL1-HA at the tethering site); parent: 650; read off a plot.
As for chain 2 L1357E, chain 2 M1407E, the response is approximately 60 a.u.
The same measure, in the same setting: as for chain 2 F1324R, the figure is approximately 35 a.u.

The variants in a further test derive from B2. Description: LacO/LacI tethering assay in U2OS cells (fluorescence intensity of CAL1-V5 at the tethering site); parent: 2.1e+03; read off a plot. The source holds these as a separate data set.
In the case of chain 1 I900R, chain 1 K907A, chain 1 Y908A, the response was approximately 300 a.u.

Another test covers variants of B2. Nature of the test: LacO/LacI tethering assay in Drosophila S2 cells (fluorescence intensity of CAL1-HA at the tethering site); parent: 650; read off a plot. The source holds these as a separate data set.
Consider chain 1 I900R, chain 1 K907A, chain 1 Y908A, for which the response is approximately 12 a.u.

Variants of B3 are the subject of another test. Description: Ni-NTA pull-down, band intensity quantification; parent: 3; read off a plot.
chain 1 F43R: the response is ~1.8 ratio CENP-A101-225/H4:CAL11-160.
Same read-out and setting: as for chain 1 W22R, chain 1 F29R, the figure is ~0.42 ratio CENP-A101-225/H4:CAL11-160; as for chain 1 W22A, chain 1 F29A, ~0.38 ratio CENP-A101-225/H4:CAL11-160.
Same read-out and setting: as for chain 1 F29A, the figure is ~3.2 ratio CENP-A101-225/H4:CAL11-160.
The same measure, in the same setting: as for chain 1 F29R, the figure is ~2.6 ratio CENP-A101-225/H4:CAL11-160.
Regarding chain 1 W22R, the response is ~0.7 ratio CENP-A101-225/H4:CAL11-160.

Variants of B3 are the subject of the next test. Description: Ni-NTA pull-down, band intensity quantification; parent: 4.1; read off a plot.
Take chain 2 M86A: the response is ~3.6 ratio CENP-A101-225/H4:CAL11-160.
The same measure, in the same setting: the result for chain 2 S54Q reads ~3.5 ratio CENP-A101-225/H4:CAL11-160; that for chain 2 Q90G, ~2.8 ratio CENP-A101-225/H4:CAL11-160; that for chain 2 S54Q, chain 2 M86A, ~2.9 ratio CENP-A101-225/H4:CAL11-160.
Same read-out and setting: the result for chain 2 S54Q, chain 2 M86A, chain 2 Q90G reads ~0.85 ratio CENP-A101-225/H4:CAL11-160.
